This assay has as its target T1, rCaspase 3 (purchased from PharMingen) (UniProt P42574 29-277, limits assumed).
T1 sequence (looked up): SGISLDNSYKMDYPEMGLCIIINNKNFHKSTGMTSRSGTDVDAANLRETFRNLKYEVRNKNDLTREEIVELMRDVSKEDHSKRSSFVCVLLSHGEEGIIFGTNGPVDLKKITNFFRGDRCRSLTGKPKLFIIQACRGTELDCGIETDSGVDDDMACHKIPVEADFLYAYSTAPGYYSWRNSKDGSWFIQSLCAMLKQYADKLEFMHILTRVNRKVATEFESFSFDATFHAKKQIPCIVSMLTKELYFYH
Briefly: cell-based or functional assay.

* marks the point of attachment. Ethoxycarbonyl = CCOC(=O)*; CH2F = FC*

Ethoxycarbonyl-Val-Asp-CH2F (SMILES CCOC(=O)N[C@H](C(=O)N[C@@H](CC(=O)O)C(=O)CF)C(C)C) [Ethoxycarbonyl-Val-Asp-fmk]: the “Caspase-3 IC50 (fluorometric enzyme assay, cleavage of 10 uM Ac-DEVD-AMC by 2 ng rCaspase 3)” value is 58 nM.

As for cyclohexylmethoxycarbonyl-Val-Asp-CH2F [Cyclohexylmethoxycarbonyl-Val-Asp-fmk], the “Caspase-3 IC50 (fluorometric enzyme assay, cleavage of 10 uM Ac-DEVD-AMC by 2 ng rCaspase 3)” value turned out to be 72 nM.

The values are drawn from patent US20040116355A1 (CYTOVIA, published 2004).
